The numbers were not newly measured in paper PMC7689933, which cites them from elsewhere.

The target of the series is His15 (UniProt position 33, AAMKRHGLDNY). Briefly: NMR. The following applies: not stated (presumably native, ligand-free lysozyme).

For the substance “Lysozyme C (hen egg white lysozyme) (Gallus gallus)”, the pKa is recorded as 5.35 ± 0.07.

What is called pKa is the negative logarithm of the acid dissociation constant.
